{
  "source": "patent US20030211587A1",
  "about": "(University of Texas, published 2003)",
  "target": "the molecule itself",
  "assay": "native gel electrophoresis of purified His-tagged keptin (self-association)",
  "procedure": "Analysis of His-tagged keptin recombinant protein. Crude proteins were extracted from E. Coli transformed with a bacterial expression vector encoding a secreted form of keptin tagged with 10× histidine residues at its N-terminus. The extracts were affinity purified with nickel resins and subjected to SDS-PAGE analysis under denatured conditions. […] The purified protein was also analyzed for its biochemical properties by native gel electrophoresis. Both keptin dimers and monomers were detected in the native gel. Leptin (MW: 14 kDa) was used as a reference for a monomer protein with similar molecular weight to His-Keptin (11.4 kDa).",
  "data": [
    {"protein": "His-tagged keptin recombinant protein (human mature keptin with N-terminal 10x histidine, from pET-hKeptin in E. coli) (other, UniProt P60985 23-99, looked up, mature; also called His-keptin; His-Keptin; not shown: N-terminal 10x histidine tag encoded by vector pET-16b) ATLGGPEEESTIENYASRPEAFNTPFLNIDKLRSAFKADEFLNWHALFESIKRKLPFLNWDAFPKLKGLRSATPDAQ", "values": [
      {"measurement": "binding result", "value": "binds"}
    ]}
  ]
}
